Source: patent US20220236279A1

Assays:
[1] = biological target: human atypical chemokine receptor 3 (ACKR3) (human) (UniProt P25106); assay: cell-based or functional assay
[2] = biological target: human atypical chemokine receptor 3 (ACKR3) (human) (UniProt P25106); assay: binding competition with CXCL12-AF647, flow cytometry

human atypical chemokine receptor 3 (ACKR3) (human), sequence (P25106 whole entry): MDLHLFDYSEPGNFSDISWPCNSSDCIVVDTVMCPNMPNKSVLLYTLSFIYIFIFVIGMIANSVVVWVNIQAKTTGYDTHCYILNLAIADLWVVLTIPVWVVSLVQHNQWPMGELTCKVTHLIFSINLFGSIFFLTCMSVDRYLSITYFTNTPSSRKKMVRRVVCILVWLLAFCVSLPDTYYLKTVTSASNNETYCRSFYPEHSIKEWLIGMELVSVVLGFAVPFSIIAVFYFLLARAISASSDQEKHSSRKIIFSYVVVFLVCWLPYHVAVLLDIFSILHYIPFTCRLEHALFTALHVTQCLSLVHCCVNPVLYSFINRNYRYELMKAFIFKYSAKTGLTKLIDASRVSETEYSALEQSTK

| EC50, β-arrestin recruitment (NanoBiT) [1] [nM] | IC50 [2] [nM] | Substance |
| --- | --- | --- |
| 2.2 |  | CXCL11 (C-X-C motif chemokine 11) (from UniProt O14625 22-94) (ligand) |
|  | > 10000 | nociceptin 1-13 amide |
